# Substitutions are numbered along the chain they refer to.
# B1: PRO1013 (anti-PD-L1 scFv, CDR set of clone 37-20-B03 grafted on a VH1 framework) (scFv)
# chain: DIQMTQSPSSLSASVGDRVTITCQASQSIGTYLAWYQQKPGKAPKLLIYRAFILASGVPSRFSGSGSGTDFTLTISSLQPEDFATYYCQSNFYSDSTTIGPNAFGTGTKVTVLGGGGGSGGGGSGGGGSGGGGSQVQLVQSGAEVKKPGASVKVSCKASGFSFNSDYWIYWVRQAPGQGLEWMGSIYGGSSGNTQYASWAQGRVTMTRDTSISTAYMELSSLRSEDTAVYYCARGYVDYGGATDLWGQGTLVTVSS
# B2: PRO1060: 33-03-G02 IgG1 HC with 38_02_A04 sc01 scFV, PD-L1/CD137(scFv) silent Morrison (bispecific antibody)
# light: DIQMTQSPSSLSASVGDRVTITCQASQSINDYLAWYQQKPGKAPKLLIYKASTLASGVPSRFSGSGSGTDFTLTISSLQPEDFATYYCQQGYIITDIDNVFGTGTKVTVLGTVAAPSVFIFPPSDEQLKSGTASVVCLLNNFYPREAKVQWKVDNALQSGNSQESVTEQDSKDSTYSLSSTLTLSKADYEKHKVYACEVTHQGLSSPVTKSFNRGEC
# heavy: QVQLQESGPGLVKPSETLSLTCKVSGFSFSSGYDMCWIRQPPGKGLEWIGCVVAGSVDITYYASWAKGRVTISVDSSKNQFSLKLSSVTAADTAVYYCARKDAYSDAFNLWGQGTLVTVSSASTKGPSVFPLAPSSKSTSGGTAALGCLVKDYFPEPVTVSWNSGALTSGVHTFPAVLQSSGLYSLSSVVTVPSSSLGTQTYICNVNHKPSNTKVDKRVEPKSCDKTHTCPPCPAPEAAGGPSVFLFPPKPKDTLMISRTPEVTCVVVDVSHEDPEVKFNWYVDGVEVHNAKTKPREEQYNSTYRVVSVLTVLHQDWLNGKEYKCKVSNKALGAPIEKTISKAKGQPREPQVYTLPPSREEMTKNQVSLTCLVKGFYPSDIAVEWESNGQPENNYKTTPPVLDSDGSFFLYSKLTVDKSRWQQGNVFSCSVMHEALHNHYTQKSLSLSPGKGGGGSGGGGSIQMTQSPSSLSASVGDRVTITCQASQSINNVLAWYQQKPGKAPKLLIYRASTLASGVPSRFSGSGSGTDFTLTISSLQPEDFATYYCQSSYGNYGDFGTGTKVTVLGGGGGSGGGGSGGGGSGGGGSQVQLQESGPGLVKPSETLSLTCKVSGFSFSNSYWICWIRQPPGKGLEWIGCTFVGSSDSTYYANWAKGRVTISVDSSKNQFSLKLSSVTAADTAVYYCARHPSDAVYGYANNLWGQGTLVTVSS
# notes: IgG-scFv fusion, scFv on the heavy chain; also called Morrison-H
# B3: PRO1123: 38-02-A04 sc05 IF scDb-i/33_03_G02 sc01 scDb-o (bispecific antibody)
# chain: DIQMTQSPSSLSASVGDRVTITCQASQSINDYLAWYQQKPGKAPKLLIYKASTLASGVPSRFSGSGSGTDFTLTISSLQPEDFATYYCQQGYIITDIDNVFGTGTKVTVLGGGGGSQVQLQESGPGLVKPSETLSLTCKVSGFSFSNSYWICWVRQPPGKGLEWIGCTFVGSSDSTYYANWAKGRVTISVDSSKNQVSLKLSSVTAADTAVYFCARHPSDAVYGYANNLWGQGTLVTVSSGGGGSGGGGSGGGGSGGGGSIQMTQSPSSLSASVGDRVTITCQASQSINNVLAWYQQKPGKPPKLLIYRASTLASGVPSRFSGSGSGTDFTLTISSLQPEDFATYYCQSSYGNYGDFGTGTKVTVLGGGGGSQVQLQESGPGLVKPSETLSLTCKVSGFSFSSGYDMCWIRQPPGKGLEWIGCVVAGSVDITYYASWAKGRVTISVDSSKNQFSLKLSSVTAADTAVYYCARKDAYSDAFNLWGQGTLVTVSS
# notes: scDb
# B4: PRO1124: 38-02-A04 sc06 Full scDb-i/33_03_G02 sc01 scDb-o (bispecific antibody)
# chain: B3 chain with V140A, V190K, I261L
# notes: scDb, STR graft of the CD137 domain
# What was measured:
# biotinylated human PD-L1 [1] = biological target: T1, biotinylated human PD-L1 (human, UniProt Q9NZQ7 19-238, limits assumed, biotinylated); experiment: competition ELISA; coated human PD-1 as competitor; biotinylated human PD-L1 pre-incubated with inhibitor
# T1 construct: also called biotinylated PD-L1
# [2] = biological target: human PD-L1 expressed on cells (human, UniProt Q9NZQ7 19-290); experiment: cell-based or functional assay
# biotinylated human PD-L1 [3] = biological target: T1, biotinylated human PD-L1; experiment: competition ELISA; coated human B7.1 as competitor; biotinylated PD-L1 pre-incubated with inhibitor
# [4] = biological target: T2, human CD137 expressed on cells (human, UniProt Q07011 24-255); experiment: cell-based or functional assay
# [5] = biological target: T2, human CD137 expressed on cells; experiment: cell-based or functional assay; remark: listed apart in the source
# [6] = biological target: T2, human CD137 expressed on cells; experiment: cell-based or functional assay; remark: listed apart in the source
# [7] = biological target: T2, human CD137 expressed on cells; experiment: cell-based or functional assay; remark: listed apart in the source
# [8] = biological target: T2, human CD137 expressed on cells; experiment: cell-based or functional assay; remark: listed apart in the source
# [9] = biological target: T2, human CD137 expressed on cells; experiment: cell-based or functional assay; remark: listed apart in the source
# [10] = biological target: human PD-L1-Fc chimeric protein (human, UniProt Q9NZQ7 19-239); experiment: SPR (Biacore T200); PD-L1-Fc captured by anti-human Fc
# [11] = biological target: T2, human CD137 expressed on cells; experiment: cell-based or functional assay; remark: listed apart in the source
Binder,IC50 (biotinylated human PD-L1 [1]),"IC50 (ng/ml), neutralization of PD-L1/PD-1 interaction, NFAT-luciferase reporter gene assay [2]",IC50 (biotinylated human PD-L1 [3]),"EC50 in ng/ml, CD137 activation, NFkB-luciferase Jurkat reporter assay, HCC827 with IFNy stimulation, 24h [4]","EC50 in ng/ml, CD137 activation, NFkB-luciferase Jurkat reporter assay, HCC827 without IFNy stimulation, 24h [4]","EC50 in ng/ml, CD137 activation, NFkB-luciferase Jurkat reporter assay, PD-L1 expressing CHO cells, 24h [5]","EC50 in ng/ml, CD137 activation, NFkB-luciferase Jurkat reporter assay, PD-L1 expressing CHO cells, 6h [6]","EC50 in ng/ml, CD137 activation, NFkB-luciferase Jurkat reporter assay, HCC827 cells stimulated with IFNg [7]","max. activation (%), NF-kB reporter gene, CHO-PD-L1; HSA: no [8]","max. activation (%), NF-kB reporter gene, HCC827 +IFNg; HSA: no [8]","max. activation (%), NF-kB reporter gene, HCC827 -IFNg; HSA: no [8]","EC50 in ng/ml, CD137 activation, NFkB-luciferase Jurkat reporter assay, CHO-PD-L1 cells [9]",binding result [10],"EC50 in ng/ml, CD137 activation, NFkB-luciferase Jurkat reporter assay, HCC827 cells without IFNg [11]"
B1,0.00057 µg/mL,21.3 ng/mL,0.00405 µg/mL,–,–,–,–,–,–,–,–,–,–,–
B2,0.00567 µg/mL,133 ng/mL,0.0174 µg/mL,17.5 ng/mL,13.6 ng/mL,80.8 ng/mL,56.4 ng/mL,–,–,–,–,–,–,–
B3,–,–,–,–,–,–,–,11.9 ng/mL,219%,154%,123%,5.75 ng/mL,binds,16.1 ng/mL
B4,–,–,–,–,–,–,–,4.83 ng/mL,229%,188%,113%,3.68 ng/mL,binds,5.62 ng/mL

# Source: patent EP3470428A1 (Numab Innovation AG, dated 2019)
